Target: SARS-CoV-1 spike (S) receptor binding domain (SARS-CoV-1)
Assay: SPR

parental VHH-72-Fc (Fc fusion)
koff: 0.00021 s⁻¹

From article PMC8967028
